Key:
[1] = molecular target: T1, GARS-His (Sino Biological) (human, UniProt P41250 37-739, limits assumed); experiment: ELISA on coated GARS-His, 150 ng IgG1; None 0.099
T1 construct: Bought; also called GARS1; glycyl-tRNA synthetase; not shown: His tag of the bought protein
T1 sequence: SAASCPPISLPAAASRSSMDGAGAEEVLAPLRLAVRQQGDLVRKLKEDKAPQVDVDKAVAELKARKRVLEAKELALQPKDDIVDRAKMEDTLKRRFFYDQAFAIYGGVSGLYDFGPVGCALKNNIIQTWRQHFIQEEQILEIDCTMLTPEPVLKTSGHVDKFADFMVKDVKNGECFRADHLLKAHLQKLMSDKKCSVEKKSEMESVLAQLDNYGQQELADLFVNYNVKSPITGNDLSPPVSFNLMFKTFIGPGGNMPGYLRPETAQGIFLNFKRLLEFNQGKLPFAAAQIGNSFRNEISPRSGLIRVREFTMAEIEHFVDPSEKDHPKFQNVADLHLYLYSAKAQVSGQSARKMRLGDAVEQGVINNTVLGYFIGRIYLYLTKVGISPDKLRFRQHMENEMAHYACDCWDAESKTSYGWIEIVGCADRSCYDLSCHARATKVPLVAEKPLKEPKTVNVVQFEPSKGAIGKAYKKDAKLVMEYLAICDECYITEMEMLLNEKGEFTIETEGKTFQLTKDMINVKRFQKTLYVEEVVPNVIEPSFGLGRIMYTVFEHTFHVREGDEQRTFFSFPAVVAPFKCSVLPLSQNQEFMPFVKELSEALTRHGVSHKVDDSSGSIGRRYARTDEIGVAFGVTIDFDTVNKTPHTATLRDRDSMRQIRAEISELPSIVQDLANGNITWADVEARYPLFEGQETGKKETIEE
Description: (§1) Recombinant purified ECDs (50-150 ng) of each putative target protein were coated, incubated with 150 ng of the indicated primary antibody, and binding was detected using a peroxidase-conjugated anti-human Fab secondary antibody. Heatmap represents averages of technical triplicates. (8B) Target validation via siRNA knockdown. H929 cells were transfected with siRNA pools targeting the putative antibody targets ICAM1, CADM1, and PTPRG. Cells were then subjected to cognate IgG binding analysis via flow cytometry. (NT, non-targeting siRNA).
(§2) ELISA ELISA was conducted as described previously. Briefly, 50-150 ng of antigen was coated overnight in half-area 96-well plates at 4° C., blocked with 3% BSA at 37° C. for 1 h, and 150 ng of chimeric rabbit/human IgG1 was added, incubating for 2 h at 37° C. […] After incubating at 37° C. for 15 min-1 h (depending on intensity of controls), data were acquired using a SpectraMax M5 plate reader (Molecular Devices).

ANXA1 = molecular target: T2, ANXA1; experiment: ELISA on coated ANXA1-His, 150 ng IgG1; None 0.098
T2 construct: coated protein in the ELISA; also called ANXA1-His (R&D Systems)
T2 chain: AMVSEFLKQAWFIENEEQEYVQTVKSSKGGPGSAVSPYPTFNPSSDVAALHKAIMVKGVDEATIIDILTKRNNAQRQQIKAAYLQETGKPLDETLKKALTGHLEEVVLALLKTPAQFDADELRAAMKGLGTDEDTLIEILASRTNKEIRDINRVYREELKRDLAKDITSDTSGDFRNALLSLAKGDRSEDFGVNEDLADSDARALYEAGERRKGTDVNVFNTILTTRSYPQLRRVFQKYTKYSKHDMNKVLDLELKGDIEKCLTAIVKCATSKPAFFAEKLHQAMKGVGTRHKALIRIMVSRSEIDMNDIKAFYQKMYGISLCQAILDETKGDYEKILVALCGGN
Description: as §1, §2

PTP4A3 (PRL-3) = molecular target: T3, PTP4A3 (PRL-3); experiment: ELISA on coated His-PTP4A3
T3 construct: coated protein in the ELISA; also called His-PTP4A3 (R&D Systems)
T3 sequence (chain, as listed by the source limits assumed): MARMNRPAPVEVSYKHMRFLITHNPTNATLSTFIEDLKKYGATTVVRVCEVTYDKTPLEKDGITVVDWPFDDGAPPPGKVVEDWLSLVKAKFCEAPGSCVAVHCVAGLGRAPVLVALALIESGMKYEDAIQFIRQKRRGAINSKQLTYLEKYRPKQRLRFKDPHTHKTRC
Description: as §1, §2

ICAM1-Fc (R&D Systems) = molecular target: T4, ICAM1-Fc (R&D Systems) (human, UniProt P05362 28-480); experiment: ELISA on coated ICAM1-Fc, 150 ng IgG1; None 0.060
T4 construct: Bought; also called ICAM-1/CD54; not shown: Fc of the bought fusion protein
T4 sequence (P05362 28-480): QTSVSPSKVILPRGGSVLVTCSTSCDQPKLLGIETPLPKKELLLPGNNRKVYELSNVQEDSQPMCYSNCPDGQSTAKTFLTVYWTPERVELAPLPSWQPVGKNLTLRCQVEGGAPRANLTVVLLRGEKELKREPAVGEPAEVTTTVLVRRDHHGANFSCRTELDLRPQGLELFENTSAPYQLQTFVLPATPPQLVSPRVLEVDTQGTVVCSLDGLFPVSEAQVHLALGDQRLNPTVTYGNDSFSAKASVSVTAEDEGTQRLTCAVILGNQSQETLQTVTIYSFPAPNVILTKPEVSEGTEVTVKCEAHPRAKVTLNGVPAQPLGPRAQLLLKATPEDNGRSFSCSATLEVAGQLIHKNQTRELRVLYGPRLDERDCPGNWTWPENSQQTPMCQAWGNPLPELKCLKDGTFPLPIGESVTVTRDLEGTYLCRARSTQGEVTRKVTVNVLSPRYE
Description: as §1, §2

HHLA2 (B7-H7) = molecular target: T5, HHLA2 (B7-H7); experiment: ELISA on coated HHLA2-Fc
T5 construct: coated protein in the ELISA; also called HHLA2-Fc (R&D Systems)
T5 chain: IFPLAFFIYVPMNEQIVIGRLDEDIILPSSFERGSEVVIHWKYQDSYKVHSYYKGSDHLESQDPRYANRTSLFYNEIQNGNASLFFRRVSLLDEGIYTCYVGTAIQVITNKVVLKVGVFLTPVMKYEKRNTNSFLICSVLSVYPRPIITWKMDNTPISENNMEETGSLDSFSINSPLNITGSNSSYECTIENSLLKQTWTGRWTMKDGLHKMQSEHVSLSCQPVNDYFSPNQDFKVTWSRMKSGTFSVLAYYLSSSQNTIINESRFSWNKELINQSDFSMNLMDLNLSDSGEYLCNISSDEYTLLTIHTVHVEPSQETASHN
Description: as §1, §2

Binder	ELISA Absorbance (405 nm-570 nm) [1]	ELISA Absorbance (405 nm-570 nm) (ANXA1)	binding result (PTP4A3 (PRL-3))	ELISA Absorbance (405 nm-570 nm) (ICAM1-Fc (R&D Systems))	binding result (HHLA2 (B7-H7))
HW-97 chimeric rabbit-human IgG1 LA/LA/PG (antibody, V domains shown, Fc-silenced (L234A/L235A/P329G) IgG1, lambda; Alexa Fluor 647-labeled in single-step flow cytometry; Prototype of cluster C-97) VH: QKQLVESGGRLVTPGTPLTLTCTVTGIDLSSHGMSWVRQAPGKGLEWIGVIYPSGSTWYASWARGRFTISKTSTTVDLKMTSLTTEDTATHFCARGDVGGADNNIWGPGTLVTVSS VL: SFVLTQPASVQVDLGQTVSLTCTAETLSRSYASWYQQKPGQAPVLLIYRDTSRPSGVPDRFSGSSSGNTATLTISGAQAGDEADYYCATSDGSGSSYQYVFGGGTQLTVTG	0.079	0.075	no binding (tested: 150 ng IgG1 per well)	0.081	no binding (tested: 150 ng IgG1 per well)
HW-101 chimeric rabbit-human IgG1 LA/LA/PG (antibody, V domains shown, Fc-silenced (L234A/L235A/P329G) IgG1, lambda; Alexa Fluor 647-labeled in single-step flow cytometry; Cluster C-97) VH: QEQLVESGGRLVTPGTPLTLTCKASGFSLGKYDMSWVRQAPGKGLEWIGTIYAGSGSTWYASWAKGRFTISKTSTTVDLKMTSLTTEDTATYFCARDFLGVNSIWGPGTLVTISS VL: SFVLTQPASVQVNLGQTVSLTCTADTLSRSYASWYQQKPDQAPVLLIHRDTSRPSGVPDRFSGSNSGNTATLTISGAQAGDEADYYCATSDGSGSNFHFVFGGGTQLTVTG	0.093	0.066	no binding (tested: 150 ng IgG1 per well)	0.055	no binding (tested: 150 ng IgG1 per well)
HW-113 chimeric rabbit-human IgG1 LA/LA/PG (antibody, V domains shown, Fc-silenced (L234A/L235A/P329G) IgG1, lambda; Alexa Fluor 647-labeled in single-step flow cytometry) VH: QKQLVESGGGLVQPGGSLTLTCTVSGFSLNKYYMGWFRQAPGKGLEWIGVISRSGDTYYSSWAKGRFTISKASTTVDLRITSPTTEDTATYFCARDASSPGFHGDRLDLWGQGTLVTVSS VL: SFVLTQPASVQVNLGQTVSLTCTADTLSRSYASWYQQKPGQAPVLLIYRDTSRPSGVPDRFSGSSSGNTATLTISGAQAGDEADYYCATSDGIGSNYLWVFGGGTQLTVTG	0.088	0.073	no binding (tested: 150 ng IgG1 per well)	0.498	no binding (tested: 150 ng IgG1 per well)
HW-16 chimeric rabbit-human IgG1 LA/LA/PG (antibody, V domains shown, Fc-silenced (L234A/L235A/P329G) IgG1, kappa; Alexa Fluor 647-labeled in single-step flow cytometry; Cluster C-45) VH: QSLEESGGRLVTPGTPLTLTCTASGFSLSSYAMSWVRQAPGKGLEWIGTMPTGGGTYYASWAKGRFTISKTSTTVDLQITSPTTEDTATYFCAKHWNIWGPGTLVTISS VL: DIVLTQTPSSTSTAVGDTVTINCRASQSIGRNLAWFQQKPGQPPKLLIYRASNLASGVPSRFKGSGSRTQFTLTISGVQREDAATYYCLGSYSSSDTAFGGGTELEILR	0.718	0.111	no binding (tested: 150 ng IgG1 per well)	0.055	no binding (tested: 150 ng IgG1 per well)

Source: patent publication US20260049134A1 (UNIVERSITY OF FLORIDA RESEARCH FOUNDATION, published 2026)
